Patent US7981997B2, “Growth factor which acts through ErbB-4 RTK” (Yeda Research And Development Co., priority 2000, dated 2011)

Experiments:
[1] = molecular target: T1, ErbB-4 co-expressed with ErbB-2 (Homo sapiens, UniProt Q15303); assay: Covalent crosslinking to CHO cells co-transfected with ErbB-4 and ErbB-2; type: binding; details: precipitation with anti-ErbB-2 antibodies
T1 construct: expressed in transfected cells; host or cells: CHO (Chinese Hamster Ovary) cells, transient co-transfection
Description: (§1) CHO cells were transfected with vectors directing expression of the indicated ErbB proteins or their combinations. Two days later cell monolayers were incubated with either ^125I-NRG-1β or ^125I-NRG-4 (EGF-like domains, each at 100 ng/ml). Following 2 hours at 4° C., the covalent crosslinking reagent bis(sulfosuccinimdyl)-suberate (BS^3) was added (1 mM final concentration) and cell extracts prepared after an additional 45 minutes of incubation. The indicated ErbB proteins were then immunoprecipitated with mouse monoclonal antibodies, and the complexes resolved by gel electrophoresis and autoradiography. Arrows mark the locations of monomeric (M) and dimeric (D) receptor complexes.
(§2) Growth factors were labeled with Iodogen (Pierce) as described (Karunagaran et al., 1995). Chemical crosslinking to Chinese Hamster Ovary (CHO) cells engineered to express different ErbB combinations have been performed essentially as described (Tzahar et al., 1996). Briefly, radiolabeled ligands (at 100 ng/ml) were incubated for 2 hours with cell monolayers at 4 C. […] Non-specific binding was determined in the presence of a 100-fold molar excess of the unlabeled ligani. Cells were then washed, lysed in a solution containing 0.1 M NaOH and 0.1% SDS, and radioactivity determined by use of a gamma counter. […]

IgB-2 (soluble ErbB-2) = molecular target: T2, IgB-2 (soluble ErbB-2) (Homo sapiens, UniProt P04626); assay: Covalent crosslinking of radiolabeled ligands to soluble ErbB-IgG fusion, cell-free; type: binding; details: 125I-labeled ligand, BS3 crosslinking
T2 construct: Recombinant soluble extracellular domains of the four ErbB proteins (denoted IgB-1 through 4); made in house; host or cells: HEK-293 human embryonic kidney cells (conditioned medium)
Description: The four soluble forms of ErbB proteins, in the form of IgG fusions (denoted IgB-1 through 4), were separately incubated with the indicated radiolabeled growth factors. Where indicated (lower panel), an excess (100-fold) of unlabeled NRG-4 was co-incubated with the labeled ligand. Following 2 hours at 22° C., the covalent crosslinking reagent bis(sulfosuccinimdyl)-suberate (BS^3) was added (1 mM) and 45 minutes later the ligand-receptor complexes were immunoprecipitated with agarose-immobilized protein-A beads. Arrows mark the locations of monomeric (M) and dimeric (D) receptor complexes.
Growth factors were labeled with Iodogen (Pierce) as described (Karunagaran et al., 1995). Chemical crosslinking to Chinese Hamster Ovary (CHO) cells engineered to express different ErbB combinations have been performed essentially as described (Tzahar et al., 1996). Briefly, radiolabeled ligands (at 100 ng/ml) were incubated for 2 hours with cell monolayers at 4 C. The chemical crosslinking agent BS^3 (1 mM) was then added and the cells were further incubated for 45 minutes at 22 C. Mouse antibodies were first coupled to rabbit anti-mouse IgG and to protein A-Sepharose beads, and then they were incubated with cell extracts for 2 hours at 4 C. Immunoprecipitated complexes were then washed three times with ice-cold SBN buffer (1% NP-40; 150 mM NaCl; 10% Glycerol; 1 mM EGTA, in 50 mM Tris-HCl, pH 7.4; 1 ml per wash) prior to heating (5 minutes at 95 C) in gel sample buffer, resolution by gel electrophoresis, transfer to nitrocellulose and autoradiography. For crosslinking with IgBs, after co-incubation of IgB-containing conditioned media with radiolabeled ligands, complexes were immunoprecipitated directly with Sepharose-protein A beads. For ligand displacement analyses, cell monolayers were washed once with binding buffer, and then incubated for 2 hours at 4 C with radiolabeled […] (5 ng/ml) and various concentrations of unlabeled ligands, as indicated. Non-specific binding was determined in the presence of a 100-fold molar excess of the unlabeled ligani. Cells were then washed, lysed in a solution containing 0.1 M NaOH and 0.1% SDS, and radioactivity determined by use of a gamma counter.
In the first assay, binding studies in a cell-free system were performed with recombinant soluble forms of all four ErbB proteins. The soluble proteins, denoted IgB-1 through 4, consist of a dimeric fusion between the extracellular domain of the corresponding ErbB and the Fc portion of a human immunoglobulin G (Chen et al., 1996).

[2] = molecular target: T3, ErbB-4 co-expressed with ErbB-3 (Homo sapiens, UniProt Q15303); assay: Covalent crosslinking to CHO cells co-transfected with ErbB-4 and ErbB-3; type: binding
T3 construct: expressed in transfected cells; host or cells: CHO (Chinese Hamster Ovary) cells, transient co-transfection
T3 sequence (Q15303 26-1308): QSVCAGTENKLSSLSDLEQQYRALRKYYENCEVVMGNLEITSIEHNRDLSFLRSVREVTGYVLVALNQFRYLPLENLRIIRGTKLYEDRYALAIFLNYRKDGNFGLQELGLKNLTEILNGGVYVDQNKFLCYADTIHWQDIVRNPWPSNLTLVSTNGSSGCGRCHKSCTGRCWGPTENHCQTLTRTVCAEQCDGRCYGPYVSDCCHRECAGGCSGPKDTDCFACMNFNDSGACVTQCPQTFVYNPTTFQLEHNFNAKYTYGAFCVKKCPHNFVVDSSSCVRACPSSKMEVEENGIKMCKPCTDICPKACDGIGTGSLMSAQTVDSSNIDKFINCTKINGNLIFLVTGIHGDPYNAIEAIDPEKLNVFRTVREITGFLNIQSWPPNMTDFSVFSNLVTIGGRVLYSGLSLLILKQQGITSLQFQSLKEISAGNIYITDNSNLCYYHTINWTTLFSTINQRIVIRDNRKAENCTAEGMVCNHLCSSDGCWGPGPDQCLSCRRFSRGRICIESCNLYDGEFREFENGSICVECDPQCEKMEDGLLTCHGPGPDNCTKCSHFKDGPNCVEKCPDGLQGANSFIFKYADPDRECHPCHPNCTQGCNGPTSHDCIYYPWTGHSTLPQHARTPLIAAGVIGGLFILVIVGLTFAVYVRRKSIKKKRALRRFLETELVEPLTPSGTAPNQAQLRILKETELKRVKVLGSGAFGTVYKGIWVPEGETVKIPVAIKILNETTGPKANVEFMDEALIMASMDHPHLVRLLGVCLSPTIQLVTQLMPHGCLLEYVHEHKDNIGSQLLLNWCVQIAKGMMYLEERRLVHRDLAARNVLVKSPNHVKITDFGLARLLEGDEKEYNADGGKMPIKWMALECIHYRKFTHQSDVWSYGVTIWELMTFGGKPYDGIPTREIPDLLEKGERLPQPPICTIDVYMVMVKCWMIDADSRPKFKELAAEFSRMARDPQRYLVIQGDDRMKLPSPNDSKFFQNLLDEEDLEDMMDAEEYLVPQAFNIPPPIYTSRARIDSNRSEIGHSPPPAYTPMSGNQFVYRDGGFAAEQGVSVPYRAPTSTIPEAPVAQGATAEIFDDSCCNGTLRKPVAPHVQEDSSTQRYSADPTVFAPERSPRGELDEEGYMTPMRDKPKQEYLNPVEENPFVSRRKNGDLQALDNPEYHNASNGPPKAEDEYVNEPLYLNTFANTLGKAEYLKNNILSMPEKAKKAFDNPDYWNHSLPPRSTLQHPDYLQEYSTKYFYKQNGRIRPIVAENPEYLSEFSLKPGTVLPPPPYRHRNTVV
Description: as §1, §2

D1 cells = assay: Tyrosine phosphorylation and MAPK activation, immunoblotting; type: cell-based; details: doses as high as 1 μg/ml
Description: (§3) For receptor activation studies, derivatives of the 32D cell line were resuspended in phosphate-buffered solution (PBS) and incubated at 22 C for 15 minutes before adding growth factors and incubating for five minutes at 37 C. Cells were then pelleted and lysed in ice cold solubilization buffer [50 mM Tris-HCl pH 7.5, 150 mM NaCl, 1% Nonidet-P40, 0.5% Na-deoxycholate, 0.1% sodium dodecyl sulfate (SDS), 1.5 mM EDTA, 1.5 mM MgCl2, 2 mM Na-orthovanadate, 1 mM phenylmethylsulfonyl fluoride (PMSF), 10 µg/ml aprotinin and 10 µg/ml leupeptin] and left on ice for 15 minutes. The whole cell extract was then cleared by centrifugation (12,000×g for 10 minutes at 4 C), immediately boiled in reducing gel sample buffer, and resolved by 10% SDS PAGE before being transferred onto nitrocellulose. Filters were blocked in TBST buffer (0.02 M Tris-HCl pH 7.5, 0.15 M NaCl, 0.05% Tween-20) containing 1% milk for 40 minutes at 22 C, blotted with primary antibodies in TBST overnight at 4 C, followed by conjugation with a secondary antibody linked to horseradish peroxidase and subsequent detection by chemiluminescence (Amersham Corp.).
(§4) Evidently, NRG-4 binds to ErbB-4 and mediates cell proliferation through activation of this receptor. Because other ErbB ligands stimulate cell growth via tyrosine phosphorylation of their respective receptors and activation of the intervening mitogen-activated protein kinase (MAPK) cascade, these two signaling steps were tested in NRG-4-responsive myeloid cells expressing ErbB-4 (D4 and D24 cell lines). Cells were stimulated with 100 ng/ml of activating ligand for five minutes, followed by lysis and analysis by immunoblotting.

D2 cells = assay: as above; type: cell-based; details: doses as high as 1 μg/ml
Description: as §3, §4

D12 cells = assay: as above; type: cell-based; details: doses as high as 1 μg/ml
Description: as §3, §4

D23 cells = assay: as above; type: cell-based; details: doses as high as 1 μg/ml
Description: as §3, §4

D13 cells = assay: as above; type: cell-based; details: doses as high as 1 μg/ml
Description: as §3, §4

D3 cells = assay: as above; type: cell-based; details: doses as high as 1 μg/ml
Description: as §3, §4

heterodimers of ErbB-4 with ErbB-2 [1]: existence of NRG-4-promoted heterodimers | binding to IgB-2 (covalent crosslinking signal) (IgB-2 (soluble ErbB-2)): low or no binding | heterodimerization of ErbB-3 with ErbB-4 ([2]; following ligand binding): largely escaped heterodimerization
B1: NRG-4: synthetic refolded mouse EGF-like domain of NRG-4 (residues 4 to 50, SEQ ID NO:2) (peptide, listed as Mus musculus)
chain: MPTDHEQPCGPRHRSFCLNGGICYVIPTIPSPFCRCIENYTGARCEEVFLPSSSIPSESNLSAAFVVLAVLLTLTIAALCFLCRKGHLQRASSVQCEISLVETNNTRTRHSHREH
effect of ErbB-3 co-expression on the radioactive signal ([2]; CHO cells, ErbB-4 + ErbB-3): did not significantly affect the radioactive signals | stimulation of D1 cells (D1 cells): did not stimulate | stimulation of D2 cells (D2 cells): did not stimulate | stimulation of D12 cells (D12 cells): did not stimulate | stimulation of D23 cells (D23 cells): did not stimulate | stimulation of D13 cells (D13 cells): did not stimulate | stimulation of D3 cells (D3 cells): did not stimulate
